From publication PMC12603323 come the findings set out here.

One data set in a line: WB, CRC cells. The following applies: glycan lost; control: SPOP-WT.
Data set [1] in a line: HA-Ub, MYC-β-catenin IP, 293T. The settings on record: glycan lost; control: SPOP-WT.
A short description of data set [2]: HA-Ub co-transfection, IP, 293T. The following applies: glycan lost; control: SPOP-WT.
Another data set in a line: WB of SPOP, HCT116. The settings on record: glycan lost; control: untreated cells.

B1: SPOP (Speckle-type POZ protein): S58/59 A (protein)
parent chain: MSRVPSPPPPAEMSSGPVAESWCYTQIKVVKFSYMWTINNFSFCREEMGEVIKSSTFSSGANDKLKWCLRVNPKGLDEESKDYLSLYLLLVSCPKSEVRAKFKFSILNAKGEETKAMESQRAYRFVQGKDWGFKKFIRRDFLLDEANGLLPDDKLTLFCEVSVVQDSVNISGQNTMNMVKVPECRLADELGGLWENSRFTDCCLCVAGQEFQAHKAILAARSPVFSAMFEHEMEESKKNRVEINDVEPEVFKEMMCFIYTGKAPNLDKMADDLLAAADKYALERLKVMCEDALCSNLSVENAAEILILADLHSADQLKTQAVDFINYHASDVLETSGWKSMVVSHPHLVAEAYRSLASAQCPFLGPPRKRLKQS
In the case of B1, the “other: substrate β-catenin protein level” value in “WB, CRC cells” was “decreases”. The “other: substrate β-catenin ubiquitination” value in data set [1] is listed as “increases”. Further, the “other: ubiquitination of SPOP” value in data set [2] is given as “increases”.

B2: SPOP (Speckle-type POZ protein): OSMI-1 (protein)
parent chain: MSRVPSPPPPAEMSSGPVAESWCYTQIKVVKFSYMWTINNFSFCREEMGEVIKSSTFSSGANDKLKWCLRVNPKGLDEESKDYLSLYLLLVSCPKSEVRAKFKFSILNAKGEETKAMESQRAYRFVQGKDWGFKKFIRRDFLLDEANGLLPDDKLTLFCEVSVVQDSVNISGQNTMNMVKVPECRLADELGGLWENSRFTDCCLCVAGQEFQAHKAILAARSPVFSAMFEHEMEESKKNRVEINDVEPEVFKEMMCFIYTGKAPNLDKMADDLLAAADKYALERLKVMCEDALCSNLSVENAAEILILADLHSADQLKTQAVDFINYHASDVLETSGWKSMVVSHPHLVAEAYRSLASAQCPFLGPPRKRLKQS
On to B2, for which the expression_or_secretion result in “WB of SPOP, HCT116” is reported as “increases”.
